{"source": "patent US20220235345A1", "about": "(University of California, published 2022)", "molecules": {"B1": {"name": "securin^RE fragment containing residues 93-150 (other)", "chain": "MTEKTVKAKSSVPASDDAYPEIEKFREFNPLDFESFDLPEEHQIAHLPLSGVPLMILD", "modifications": "also: 35S-methionine label", "notes": "Pseudosubstrate motif converted into a separase cleavage site; Translated in vitro with ZZ tag, released by TEV protease; also called 35S-labeled securin fragment (aa 93-150)"}}, "key": {"[1]": {"target": "35S-labeled human Scc1 fragment (residues 142-300) (UniProt O60216)"}, "[2]": {"target": "catalytically-dead separase with intact autocleavage sites (UniProt Q14674)", "sequence (Q14674 whole entry S1126A/C2029S)": "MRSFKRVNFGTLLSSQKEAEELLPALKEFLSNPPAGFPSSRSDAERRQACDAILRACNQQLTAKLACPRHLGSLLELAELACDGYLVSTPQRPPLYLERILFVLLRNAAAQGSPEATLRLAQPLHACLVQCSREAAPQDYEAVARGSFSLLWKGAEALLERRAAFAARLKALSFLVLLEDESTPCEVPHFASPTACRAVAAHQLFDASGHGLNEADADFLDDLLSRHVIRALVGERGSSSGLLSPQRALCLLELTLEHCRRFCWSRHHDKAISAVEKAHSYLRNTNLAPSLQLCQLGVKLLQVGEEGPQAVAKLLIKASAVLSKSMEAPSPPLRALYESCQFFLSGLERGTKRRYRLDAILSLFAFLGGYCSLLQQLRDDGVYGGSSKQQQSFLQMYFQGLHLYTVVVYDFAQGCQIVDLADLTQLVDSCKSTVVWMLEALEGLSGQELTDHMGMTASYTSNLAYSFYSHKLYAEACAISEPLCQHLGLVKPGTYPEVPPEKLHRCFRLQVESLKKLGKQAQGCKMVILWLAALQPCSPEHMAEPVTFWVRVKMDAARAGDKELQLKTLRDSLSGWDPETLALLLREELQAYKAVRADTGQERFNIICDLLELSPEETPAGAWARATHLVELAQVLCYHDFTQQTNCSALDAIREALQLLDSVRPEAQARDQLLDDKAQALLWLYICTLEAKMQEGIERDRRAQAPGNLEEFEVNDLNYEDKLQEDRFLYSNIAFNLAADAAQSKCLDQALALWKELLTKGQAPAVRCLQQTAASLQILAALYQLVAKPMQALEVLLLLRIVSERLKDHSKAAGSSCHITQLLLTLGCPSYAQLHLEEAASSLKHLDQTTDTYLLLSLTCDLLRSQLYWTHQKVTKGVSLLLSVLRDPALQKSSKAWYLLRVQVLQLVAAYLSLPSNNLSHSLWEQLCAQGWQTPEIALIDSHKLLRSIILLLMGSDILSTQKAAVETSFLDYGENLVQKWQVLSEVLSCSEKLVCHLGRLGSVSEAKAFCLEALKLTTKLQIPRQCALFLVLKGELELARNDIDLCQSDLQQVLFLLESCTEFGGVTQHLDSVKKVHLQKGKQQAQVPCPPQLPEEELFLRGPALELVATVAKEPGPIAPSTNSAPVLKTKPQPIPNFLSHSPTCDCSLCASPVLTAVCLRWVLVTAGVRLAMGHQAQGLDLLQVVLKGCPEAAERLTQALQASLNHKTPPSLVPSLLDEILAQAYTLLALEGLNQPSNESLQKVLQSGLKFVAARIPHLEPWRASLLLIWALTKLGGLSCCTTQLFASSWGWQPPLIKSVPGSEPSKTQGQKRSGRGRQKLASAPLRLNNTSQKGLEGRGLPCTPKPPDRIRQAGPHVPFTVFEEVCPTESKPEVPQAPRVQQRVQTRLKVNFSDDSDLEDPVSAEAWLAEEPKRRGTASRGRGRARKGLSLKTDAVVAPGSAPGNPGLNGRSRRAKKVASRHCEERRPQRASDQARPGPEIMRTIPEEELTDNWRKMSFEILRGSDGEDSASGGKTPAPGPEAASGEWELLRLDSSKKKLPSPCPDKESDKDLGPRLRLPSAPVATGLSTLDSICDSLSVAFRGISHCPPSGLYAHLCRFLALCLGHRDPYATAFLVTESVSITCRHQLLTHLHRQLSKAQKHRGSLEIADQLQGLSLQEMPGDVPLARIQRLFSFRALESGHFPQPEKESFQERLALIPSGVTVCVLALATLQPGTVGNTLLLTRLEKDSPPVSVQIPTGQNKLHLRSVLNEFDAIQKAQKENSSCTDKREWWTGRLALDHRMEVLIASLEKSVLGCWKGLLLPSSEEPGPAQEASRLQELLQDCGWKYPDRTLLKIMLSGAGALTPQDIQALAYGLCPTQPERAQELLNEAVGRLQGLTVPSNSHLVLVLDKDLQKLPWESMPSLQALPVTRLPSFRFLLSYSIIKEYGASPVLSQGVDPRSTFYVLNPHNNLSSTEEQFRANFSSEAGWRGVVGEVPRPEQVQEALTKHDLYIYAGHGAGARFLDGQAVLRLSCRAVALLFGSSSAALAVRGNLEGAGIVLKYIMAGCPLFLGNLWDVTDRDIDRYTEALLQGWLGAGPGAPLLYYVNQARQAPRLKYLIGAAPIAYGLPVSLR"}, "[3]": {"system": "securin^RE fragment containing residues 93-150"}, "[4]": {"system": "Mca-DDREIMREGS-Dnp peptide containing Scc1 site 1"}, "[5]": {"target": "T1, separase biosensor H2B-mRuby2-Scc1(142-467)-mNeonGreen, wild-type (UniProt O60216)", "T1 sequence (O60216 whole entry, looked up)": "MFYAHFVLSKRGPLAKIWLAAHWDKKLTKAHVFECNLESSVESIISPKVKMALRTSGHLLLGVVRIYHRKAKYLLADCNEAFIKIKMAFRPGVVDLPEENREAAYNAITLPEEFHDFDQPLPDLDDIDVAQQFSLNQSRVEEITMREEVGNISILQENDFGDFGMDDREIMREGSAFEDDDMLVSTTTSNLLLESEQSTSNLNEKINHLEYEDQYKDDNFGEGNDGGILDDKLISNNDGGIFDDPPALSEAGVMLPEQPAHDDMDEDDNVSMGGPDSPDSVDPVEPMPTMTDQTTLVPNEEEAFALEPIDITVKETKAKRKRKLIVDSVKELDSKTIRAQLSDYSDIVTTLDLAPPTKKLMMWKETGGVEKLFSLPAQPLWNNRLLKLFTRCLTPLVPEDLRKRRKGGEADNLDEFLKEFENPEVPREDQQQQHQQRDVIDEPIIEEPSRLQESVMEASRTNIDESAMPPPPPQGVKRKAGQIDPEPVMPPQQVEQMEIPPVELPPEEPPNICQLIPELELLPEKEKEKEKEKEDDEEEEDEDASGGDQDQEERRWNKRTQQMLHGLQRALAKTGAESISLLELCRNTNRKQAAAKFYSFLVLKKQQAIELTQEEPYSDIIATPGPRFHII"}, "[6]": {"target": "separase biosensor H2B-mRuby2-Scc1(142-467)-mNeonGreen with deletion of Scc1 aa 251 to 260 (UniProt O60216)"}, "[7]": {"target": "separase biosensor H2B-mRuby2-Scc1(142-467)-mNeonGreen with 255Leu-Pro to Ala-Ala (UniProt O60216)"}, "[8]": {"target": "T2, active human separase, securin-free (ClpXP-activated separase obtained from the securin-separase fusion after … (human, UniProt Q14674 1-2120))", "T2 construct": "also called active separase; apo separase; not shown: N-terminal remnant left after TEV cleavage of the fusion (3x FLAG tag between TEV site and separase)", "T2 sequence (Q14674 other isoform, or with tags, fused parts or gaps)": "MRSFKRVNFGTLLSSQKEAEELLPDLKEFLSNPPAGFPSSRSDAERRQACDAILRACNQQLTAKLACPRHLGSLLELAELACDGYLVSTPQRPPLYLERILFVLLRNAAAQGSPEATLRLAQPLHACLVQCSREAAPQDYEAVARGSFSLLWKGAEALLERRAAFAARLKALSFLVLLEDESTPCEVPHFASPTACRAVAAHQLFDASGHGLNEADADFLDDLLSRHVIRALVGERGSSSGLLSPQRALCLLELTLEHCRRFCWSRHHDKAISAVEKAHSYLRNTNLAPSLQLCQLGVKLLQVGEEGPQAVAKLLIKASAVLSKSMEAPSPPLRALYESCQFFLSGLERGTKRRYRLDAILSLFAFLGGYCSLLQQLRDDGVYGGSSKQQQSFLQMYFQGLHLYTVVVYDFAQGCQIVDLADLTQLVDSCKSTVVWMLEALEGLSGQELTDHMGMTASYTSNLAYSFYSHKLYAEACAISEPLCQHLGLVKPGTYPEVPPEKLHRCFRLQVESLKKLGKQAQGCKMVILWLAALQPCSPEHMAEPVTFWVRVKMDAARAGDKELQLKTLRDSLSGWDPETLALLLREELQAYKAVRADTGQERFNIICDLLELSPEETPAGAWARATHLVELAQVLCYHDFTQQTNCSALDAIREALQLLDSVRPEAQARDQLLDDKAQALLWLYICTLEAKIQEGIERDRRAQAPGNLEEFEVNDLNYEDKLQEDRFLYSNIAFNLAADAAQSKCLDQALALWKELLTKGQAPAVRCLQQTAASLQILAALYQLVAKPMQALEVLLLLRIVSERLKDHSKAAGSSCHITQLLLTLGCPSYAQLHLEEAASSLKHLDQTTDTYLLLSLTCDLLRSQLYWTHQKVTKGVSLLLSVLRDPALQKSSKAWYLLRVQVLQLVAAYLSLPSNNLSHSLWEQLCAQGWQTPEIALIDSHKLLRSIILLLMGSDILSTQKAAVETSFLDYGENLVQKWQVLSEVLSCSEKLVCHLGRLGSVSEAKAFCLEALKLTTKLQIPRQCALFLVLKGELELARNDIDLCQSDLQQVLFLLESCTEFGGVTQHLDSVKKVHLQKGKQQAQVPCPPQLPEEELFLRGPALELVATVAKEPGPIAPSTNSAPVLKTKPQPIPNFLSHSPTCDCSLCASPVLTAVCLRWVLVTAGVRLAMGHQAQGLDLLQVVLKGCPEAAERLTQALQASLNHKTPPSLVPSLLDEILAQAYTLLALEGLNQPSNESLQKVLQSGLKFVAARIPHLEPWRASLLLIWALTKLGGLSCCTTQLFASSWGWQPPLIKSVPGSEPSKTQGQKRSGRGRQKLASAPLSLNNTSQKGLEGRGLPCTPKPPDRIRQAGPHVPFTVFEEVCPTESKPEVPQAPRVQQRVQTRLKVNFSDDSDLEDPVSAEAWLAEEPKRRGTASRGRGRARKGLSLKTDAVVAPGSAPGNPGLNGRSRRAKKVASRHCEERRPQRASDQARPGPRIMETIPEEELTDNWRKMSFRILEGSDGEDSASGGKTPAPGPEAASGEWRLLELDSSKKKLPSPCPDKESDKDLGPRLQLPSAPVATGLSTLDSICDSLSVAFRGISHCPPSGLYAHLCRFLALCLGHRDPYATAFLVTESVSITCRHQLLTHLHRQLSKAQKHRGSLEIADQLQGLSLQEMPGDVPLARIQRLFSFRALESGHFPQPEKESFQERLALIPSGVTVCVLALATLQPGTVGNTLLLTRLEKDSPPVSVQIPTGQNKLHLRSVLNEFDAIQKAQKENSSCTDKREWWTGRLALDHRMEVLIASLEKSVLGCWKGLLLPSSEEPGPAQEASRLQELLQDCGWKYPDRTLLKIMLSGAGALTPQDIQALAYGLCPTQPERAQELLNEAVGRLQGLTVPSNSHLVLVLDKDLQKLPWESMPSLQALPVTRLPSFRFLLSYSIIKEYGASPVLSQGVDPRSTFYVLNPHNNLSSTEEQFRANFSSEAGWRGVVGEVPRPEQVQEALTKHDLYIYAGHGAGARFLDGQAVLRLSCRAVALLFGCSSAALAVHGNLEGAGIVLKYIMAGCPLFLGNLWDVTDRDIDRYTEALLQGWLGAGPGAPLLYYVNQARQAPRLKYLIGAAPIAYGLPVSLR", "experiment": "in vitro cleavage of 35S-labeled securin^RE fragments with LP mutations by separase; interaction inferred from cleavage", "from_the_text": "An approach for investigating the importance of ¹³⁰LPE for securin binding to separase was developed. It is known that fungal securin can be converted to a separase substrate by making mutations that convert the pseudosubstrate site into a cleavage site⁴. The equivalent mutations were made in human securin (¹¹⁸FP to RE) and this securin^RE mutant was used to test the importance of ¹³⁰LPE for securin engagement with separase. An LP sequence a few residues further downstream (¹³⁹LP) was also tested. […] A securin^RE fragment containing residues 93-150 was then tested. […] Mutation of ¹³⁹LP had no effect, except when combined with mutation of ¹³⁰LP."}}, "note": "Ends that are not written are not given here.", "data": [{"molecule": "active human separase, securin-free (ClpXP-activated separase obtained from the securin-separase fusion after TEV protease cleavage and ClpXP removal of securin)", "values": [{"measurement": "cleavage of an Scc1 fragment in vitro", "setting": "[1]", "value": "incubation with purified ClpXP removed securin and activated separase, as evaluated by cleavage of an Scc1 fragment in vitro"}, {"measurement": "cleavage in trans", "setting": "[2]", "value": "Separase also cleaved a catalytically-dead separase with intact autocleavage sites"}, {"measurement": "cleavage of securin^RE fragment", "setting": "[3]", "value": "This fragment was 50% cleaved by separase"}, {"measurement": "KM", "setting": "[4]", "value": "KM of 70±30 µM"}]}, {"molecule": "securinΔ127-separase", "values": [{"measurement": "cleavage of the Scc1 fragment in the gel-based assay", "setting": "[1]", "value": "exhibited no cleavage activity in this assay"}, {"measurement": "peptide cleavage activity (Michaelis-Menten)", "setting": "[4]", "value": "no significant differences between the peptide cleavage activities of the three securinΔ-separase proteins and separase with no securin bound"}]}, {"molecule": "securinΔ138-separase", "values": [{"measurement": "cleavage of the Scc1 fragment in the gel-based assay", "setting": "[1]", "value": "exhibited efficient cleavage of the Scc1 substrate"}, {"measurement": "peptide cleavage activity (Michaelis-Menten)", "setting": "[4]", "value": "no significant differences between the peptide cleavage activities of the three securinΔ-separase proteins and separase with no securin bound"}]}, {"molecule": "securinΔ160-separase", "values": [{"measurement": "cleavage of the Scc1 fragment in the gel-based assay", "setting": "[1]", "value": "exhibited efficient cleavage of the Scc1 substrate"}, {"measurement": "peptide cleavage activity (Michaelis-Menten)", "setting": "[4]", "value": "no significant differences between the peptide cleavage activities of the three securinΔ-separase proteins and separase with no securin bound"}]}, {"molecule": "separase in human U2OS cells (endogenous)", "values": [{"measurement": "biosensor cleavage during anaphase", "setting": "[5]", "value": "efficient biosensor cleavage was observed during anaphase"}, {"measurement": "biosensor cleavage efficiency", "setting": "[6]", "value": "yielded identical results as the double alanine mutation"}, {"measurement": "biosensor cleavage efficiency", "setting": "[7]", "value": "reduced cleavage efficiency by 50%"}]}, {"molecule": "B1", "values": [{"measurement": "binding result", "setting": "[8]", "value": "binds"}]}]}
